T1: mutant Val87 (M11) (Priestia megaterium, UniProt P14779, E144G/E268V/E65G/F82I/F88V/G416S/H286Y/L189Q/R48L/Y199C)
T1 sequence (P14779 1-1049 R48L/E65G/F82I/F88V/E144G/L189Q/Y199C/E268V/H286Y/G416S): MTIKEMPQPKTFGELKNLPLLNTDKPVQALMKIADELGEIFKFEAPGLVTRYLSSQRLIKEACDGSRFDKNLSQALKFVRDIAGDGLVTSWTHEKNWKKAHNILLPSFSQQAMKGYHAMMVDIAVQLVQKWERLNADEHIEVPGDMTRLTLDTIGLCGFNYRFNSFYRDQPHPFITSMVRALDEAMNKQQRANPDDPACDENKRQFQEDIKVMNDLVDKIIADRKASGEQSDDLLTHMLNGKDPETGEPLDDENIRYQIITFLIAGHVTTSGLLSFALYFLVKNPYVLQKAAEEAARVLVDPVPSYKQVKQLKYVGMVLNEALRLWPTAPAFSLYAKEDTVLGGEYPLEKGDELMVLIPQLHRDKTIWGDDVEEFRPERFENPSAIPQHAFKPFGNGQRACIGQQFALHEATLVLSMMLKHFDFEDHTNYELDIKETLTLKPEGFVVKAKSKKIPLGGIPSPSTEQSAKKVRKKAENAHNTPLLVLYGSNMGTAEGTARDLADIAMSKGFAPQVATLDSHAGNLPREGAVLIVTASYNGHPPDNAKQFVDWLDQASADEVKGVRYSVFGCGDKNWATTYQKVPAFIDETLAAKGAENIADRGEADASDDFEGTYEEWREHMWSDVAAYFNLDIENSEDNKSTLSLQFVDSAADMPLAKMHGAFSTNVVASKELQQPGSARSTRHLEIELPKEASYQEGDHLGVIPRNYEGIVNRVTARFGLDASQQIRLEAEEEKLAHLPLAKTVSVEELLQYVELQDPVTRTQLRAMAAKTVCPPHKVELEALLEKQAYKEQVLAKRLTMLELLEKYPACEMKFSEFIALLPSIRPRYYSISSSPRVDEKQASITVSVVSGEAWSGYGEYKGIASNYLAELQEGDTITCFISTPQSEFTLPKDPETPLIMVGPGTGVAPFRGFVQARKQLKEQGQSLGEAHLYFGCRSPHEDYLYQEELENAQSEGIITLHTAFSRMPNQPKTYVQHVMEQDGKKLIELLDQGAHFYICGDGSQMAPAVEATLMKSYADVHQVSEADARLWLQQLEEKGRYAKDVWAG

B1: Wild type (Phe87): Cytochrome P450 BM3 (CYP102A1) from Bacillus megaterium, wild type, Phe at position 87 (protein, UniProt P14779 1-1049, looked up)
Bifunctional cytochrome …: MTIKEMPQPKTFGELKNLPLLNTDKPVQALMKIADELGEIFKFEAPGRVTRYLSSQRLIKEACDESRFDKNLSQALKFVRDFAGDGLFTSWTHEKNWKKAHNILLPSFSQQAMKGYHAMMVDIAVQLVQKWERLNADEHIEVPEDMTRLTLDTIGLCGFNYRFNSFYRDQPHPFITSMVRALDEAMNKLQRANPDDPAYDENKRQFQEDIKVMNDLVDKIIADRKASGEQSDDLLTHMLNGKDPETGEPLDDENIRYQIITFLIAGHETTSGLLSFALYFLVKNPHVLQKAAEEAARVLVDPVPSYKQVKQLKYVGMVLNEALRLWPTAPAFSLYAKEDTVLGGEYPLEKGDELMVLIPQLHRDKTIWGDDVEEFRPERFENPSAIPQHAFKPFGNGQRACIGQQFALHEATLVLGMMLKHFDFEDHTNYELDIKETLTLKPEGFVVKAKSKKIPLGGIPSPSTEQSAKKVRKKAENAHNTPLLVLYGSNMGTAEGTARDLADIAMSKGFAPQVATLDSHAGNLPREGAVLIVTASYNGHPPDNAKQFVDWLDQASADEVKGVRYSVFGCGDKNWATTYQKVPAFIDETLAAKGAENIADRGEADASDDFEGTYEEWREHMWSDVAAYFNLDIENSEDNKSTLSLQFVDSAADMPLAKMHGAFSTNVVASKELQQPGSARSTRHLEIELPKEASYQEGDHLGVIPRNYEGIVNRVTARFGLDASQQIRLEAEEEKLAHLPLAKTVSVEELLQYVELQDPVTRTQLRAMAAKTVCPPHKVELEALLEKQAYKEQVLAKRLTMLELLEKYPACEMKFSEFIALLPSIRPRYYSISSSPRVDEKQASITVSVVSGEAWSGYGEYKGIASNYLAELQEGDTITCFISTPQSEFTLPKDPETPLIMVGPGTGVAPFRGFVQARKQLKEQGQSLGEAHLYFGCRSPHEDYLYQEELENAQSEGIITLHTAFSRMPNQPKTYVQHVMEQDGKKLIELLDQGAHFYICGDGSQMAPAVEATLMKSYADVHQVSEADARLWLQQLEEKGRYAKDVWAG

Tests used:
[1] = target: T1, mutant Val87 (M11); format: biochemical, Bacillus megaterium; settings: 1 μM ketoconazole
[2] = Alkoxyresorufin-induced NADPH consumption; format: biochemical; settings: 20 nM enzyme, 200 µM NADPH, 25 °C
[3] = Alkoxyresorufin O-dealkylation by CYP102A1 M11 mutants and wild-type CYP102A1; format: biochemical; settings: 20 µM alkoxyresorufin, 20 nM P450 BM3, 25 °C
[4] = Lauric acid induced NADPH consumption; format: biochemical; settings: 0.1 mM lauric acid
[5] = benzyloxyresorufin as the substrate, data not shown

| Molecule | Inhibition of lauric acid induced NADPH consumption ([1]; 0.1 mM lauric acid) | Inhibition of substrate-induced NADPH consumption [1, 5] | Inhibition of the O-dealkylation reaction [1, 5] | Specific activity of NADPH consumption, DMSO ([2]; no substrate, solvent DMSO (2%) only) [nmol NADPH/min/nmol P450] | Specific activity of alkoxyresorufin-induced NADPH consumption, side chain Ethyl ([2]; substrate ethoxyresorufin 20 µM) | Specific activity of alkoxyresorufin O-dealkylation, side chain n-Heptyl ([3]; substrate n-heptoxyresorufin) | Specific activity of alkoxyresorufin O-dealkylation, side chain n-Octyl ([3]; substrate n-octoxyresorufin) | Effect of lauric acid on NADPH consumption [4] |
| --- | --- | --- | --- | --- | --- | --- | --- | --- |
| CC(=O)N1CCN(c2ccc(OCC3COC(Cn4ccnc4)(c4ccc(Cl)cc4Cl)O3)cc2)CC1 (centres unmarked) [ketoconazole] | completely blocked | almost completely block | almost completely block |  |  |  |  |  |
| B1 |  |  |  | 45 | 3,970 nmol NADPH/min/nmol P450 | 0.17 nmol resorufin/min/nmol P450 | 0.18 nmol resorufin/min/nmol P450 | strongly stimulated |

Source: paper PMC3139092 (Journal of Biological Inorganic Chemistry, 2011)
